Measurements from US20100172907A1 (Hoffmann-La Roche, published 2010).
Where two headings read alike, the source gives them in different places. Groups on a side chain read outwards from the residue. No end group written: not given here. NSMP = not defined here

T1: BSA-conjugated Aβ heptapeptide VFFAEDC (C-terminal Cys coupled to NSMP-activated BSA)
T1 construct: also called Peptide 18-23
T1 peptide: VFFAEDC

T2: BSA-conjugated Aβ heptapeptide FFAEDVC (C-terminal Cys coupled to NSMP-activated BSA)
T2 construct: also called Peptide 19-24
T2 peptide: FFAEDVC

T3: BSA-conjugated Aβ heptapeptide LVFFAEC (reading uncertain; also: BSA conjugate)
T3 construct: also called Peptide 17-22
T3 peptide: LVFFAEC([NSMP-BSA])

T4: BSA-conjugated Aβ heptapeptide AEFRHDC (C-terminal Cys coupled to NSMP-activated BSA)
T4 construct: also called Peptide 2-7
T4 peptide: AEFRHDC


How the values were obtained:
[1] = target: T1, BSA-conjugated Aβ heptapeptide VFFAEDC; test: ELISA
Procedure: (§1) 50 μl of NSMP activated BSA (6.7 mg/ml) was diluted with 50 μl of PBS, 0.1% sodium azide and 10 μl of peptide solution (1 mM in DMSO) was added. As negative control activated BSA was mock-treated without peptide addition. After 4 hrs at room temperature the reaction was stopped by addition of 10 μl of 10 mM Cystein. An aliquot of the conjugate reaction mixture was diluted 1:100 with 0.1M sodium bicarbonate buffer and immediately filled into the wells (100 μl) of ELISA plates (Nunc Immuno-Plate). After standing 16 hrs at 4° C. 100 μl blocking buffer (as above) was added to each well and incubated for another 30 minutes. The plates were washed with 2×300 μl/well TBST (as above) and filled with 100 μl antibody at 10 μg/ml or 2 μg/ml in blocking buffer. The plates were kept 16 hours at 4° C. and washed with 2×300 μl TBST. 100 μl/well HRP-conjugated anti-human Ig H+L (Pierce, dilution 1:1000 with blocking buffer) was added and incubated for 1 hour at ambient temperature. The plates were washed with 3×300 μl/well TBST. Colour development was started by addition of 100 μl tetra-methyl benzidine/hydrogen peroxide reagent.

[2] = target: T2, BSA-conjugated Aβ heptapeptide FFAEDVC; test: ELISA
Procedure: as §1

[3] = target: T3, BSA-conjugated Aβ heptapeptide LVFFAEC; test: ELISA
Procedure: as §1

[4] = target: T4, BSA-conjugated Aβ heptapeptide AEFRHDC; test: ELISA
Procedure: as §1

Aβ (1-42) peptide [5] = target: T5, Aβ (1-42) peptide (human); test: SPR Scatchard, higher affinity (bivalent)
T5 construct: also called Aβ1-42 fibers; Aβ4
Procedure: (§2) Binders with fast kinetics were analyzed by fitting the concentration-dependent sensor responses at equilibrium (adsorption-isotherms). KD values were calculated from the Biacore sensograms based on the total Fab concentration as determined by a protein assay. […] Briefly, time-dependent protein binding to Aβ1-40 fibers immobilized on the Biacore chip was measured during the association phase under mass-limited conditions at different flow rates of the analyte solution.
(§3) KD values of IgG binding to Aβ1-40 and Aβ1-42 fibers were determined in the Biacore. Briefly, a kinetic model for the stepwise formation of a bivalent complex was used, and KD values were calculated by Scatchard type analysis of equilibrium binding. Due to the very slow association process at low antibody concentration (several hours to reach equilibrium) equilibrium binding data were obtained by extrapolation of the association curves to long time intervals. The on- and off rates for the formation of the monovalent and bivalent complex were determined via the curve fit procedure and used for the extrapolation. Based on these Req values a Scatchard analysis was performed and KD values for the formation of the monovalent and the bivalent complex were determined.

human Aβ (1-40) peptide [6] = target: T6, human Aβ (1-40) peptide (human); test: SPR Scatchard, higher affinity (bivalent)
T6 construct: also called Aβ1-40 fibers
Procedure: as §2, §3

Aβ (1-42) peptide [7] = target: T5, Aβ (1-42) peptide; test: SPR, immobilized fibers
Procedure: (§4) Biacore2000 and Biacore3000 instruments were used for these measurements. Aβ1-40 and Aβ1-42 fibers were generated in vitro by incubation of synthetic peptides at a concentration of 200 μg/ml in 10 mM Na-acetate buffer (pH 4.0) for three days at 37° C. […] For binders with slow kinetics KD values were calculated by curve fitting of the time-dependent sensor responses, i.e. from the ratio of koff/kₒₙ. Binders with fast kinetics were analyzed by fitting the concentration-dependent sensor responses at equilibrium (adsorption-isotherms). KD values were calculated from the Biacore sensograms based on the total Fab concentration as determined by a protein assay. […] Briefly, time-dependent protein binding to Aβ1-40 fibers immobilized on the Biacore chip was measured during the association phase under mass-limited conditions at different flow rates of the analyte solution.

human Aβ (1-40) peptide [8] = target: T6, human Aβ (1-40) peptide; test: SPR, immobilized fibers
Procedure: as §4

Aβ (1-42) peptide [9] = target: T5, Aβ (1-42) peptide; test: SPR, immobilized fibers; remark: listed apart in the source
Procedure: as §4

human Aβ (1-40) peptide [10] = target: T6, human Aβ (1-40) peptide; test: SPR, immobilized fibers; remark: listed apart in the source
Procedure: as §4

human Aβ (1-40) peptide [11] = target: T6, human Aβ (1-40) peptide; test: SPR, immobilized fibers; remark: listed apart in the source
Aβ (1-42) peptide [12] = target: T5, Aβ (1-42) peptide; test: SPR, immobilized fibers; remark: listed apart in the source
Procedure: as §4

human Aβ (1-40) peptide [13] = target: T6, human Aβ (1-40) peptide; test: SPR, immobilized fibers; remark: listed apart in the source
Procedure: as §4

[14] = target: T1, BSA-conjugated Aβ heptapeptide VFFAEDC; test: ELISA
Procedure: as §1

[15] = target: T2, BSA-conjugated Aβ heptapeptide FFAEDVC; test: ELISA
Procedure: as §1

[16] = target: T3, BSA-conjugated Aβ heptapeptide LVFFAEC; test: ELISA
Procedure: as §1

[17] = target: T4, BSA-conjugated Aβ heptapeptide AEFRHDC; test: ELISA
Procedure: as §1

Aβ (1-42) peptide [18] = target: T5, Aβ (1-42) peptide; test: SPR, immobilized fibers, equilibrium responses
Procedure: as §4

human Aβ (1-40) peptide [19] = target: T6, human Aβ (1-40) peptide; test: SPR, immobilized fibers, equilibrium responses
Procedure: as §4

Row | Binder | OD ratio 18-23/BSA [1] | Peptide-ratio 18-23/2-7 [1] | OD ratio 19-24/BSA [2] | Peptide-ratio 19-24/2-7 [2] | OD ratio 17-22/BSA [3] | Peptide-ratio 17-22/2-7 [3] | OD ratio 2-7/BSA [4] | Kd (Aβ (1-42) peptide [5]) [nM] | Kd (human Aβ (1-40) peptide [6]) [nM] | further results
1 | MS-R #7.9.H7 IgG1 (antibody, V domains shown, full-length human IgG1; also called MAB 31; MS-Roche IgG #7.9.H7) VH: QVELVESGGGLVQPGGSLRLSCAASGFTFSSYAMSWVRQAPGKGLEWVSAINASGTRTYYADSVKGRFTISRDNSKNTLYLQMNSLRAEDTAVYYCARGKGNTHKPYGYVRYFDVWGQGTLVTVSS VL: DIVLTQSPATLSLSPGERATLSCRASQSVSSSYLAWYQQKPGQAPRLLIYGASSRATGVPARFSGSGSGTDFTLTISSLEPEDFATYYCLQIYNMPITFGQGTKVEIKR | 16 | 0.53 | 10 | 0.33 | 5 | 0.17 | 30 | 0.24 to 0.7 | 0.25 to 0.69 | –
2 | MS-R #7.12 IgG1 (antibody, V domains shown, full-length human IgG1) VH: QVELVESGGGLVQPGGSLRLSCAASGFTFSSYGMSWVRQAPGKGLEWVSNISGSGSSTYYADSVKGRFTISRDNSKNTLYLQMNSLRAEDTAVYYCARGKGNTHKPYGYVRYFDVWGQGTLVTVSS VL: DIVLTQSPATLSLSPGERATLSCRASQYVSSPYLAWYQQKPGQAPRLLISGSSNRATGVPARFSGSGSGTDFTLTISSLEPEDFAVYYCLQLYNIPNTFGQGTKVEIKR | 13 | 0.68 | 11 | 0.58 | 11 | 0.58 | 19 | – | – | Kd (Aβ (1-42) peptide [7]): 13.7 nM; Kd (human Aβ (1-40) peptide [8]): 3.1 nM; Kd (Aβ (1-42) peptide [9]): 13.7 nM; Kd (human Aβ (1-40) peptide [10]): 3.1 nM
3 | MS-R #7.11 IgG1 (antibody, V domains shown, full-length human IgG1) VH: QVELVESGGGLVQPGGSLRLSCAASGFTFSSYAMSWVRQAPGKGLEWVSAISGSGGSTYYADSVKGRFTISRDNSKNTLYLQMNSLRAEDTAVYYCARGKGNTHKPYGYVRYFDVWGQGTLVTVSS VL: DIVLTQSPATLSLSPGERATLSCRASQSVSSSYLAWYQQKPGQAPRLLIYGASSRATGVPARFSGSGSGTDFTLTISSLEPEDFATYYCQQVYSPPHTFGQGTKVEIKR | – | – | – | – | – | – | – | – | – | Kd (Aβ (1-42) peptide [7]): 5.7 nM; Kd (human Aβ (1-40) peptide [8]): 2.3 nM; Kd (Aβ (1-42) peptide [9]): 5.7 nM; Kd (human Aβ (1-40) peptide [10]): 2.3 nM
4 | MS-R IgG1 3.6.H5 × 3.6.L2 (antibody, V domains shown, full-length human IgG1; VH entry starts at QLVESGG) VH: ELVESGGGLVQPGGSLRLSCAASGFTFSSYAMSWVRQAPGKGLEWVSAISESGKTKYYADSVKGRFTISRDNSKNTLYLQMNSLRAEDTAVYYCARLTHYARYYRYFDVWGQGTLVTVSS VL: DIVLTQSPATLSLSPGERATLSCRASQFLSRYYLAWYQQKPGQAPRLLIYGASSRATGVPARFSGSGSGTDFTLTISSLEPEDFAVYYCQQTYNYPPTFGQGTKVEIKR | 9 | 0.82 | 8 | 0.73 | 7 | 0.64 | 11 | 0.2 to 0.95 | 0.2 to 1.03 | –
5 | MS-Roche #7.9 Fab (Fab, V domains shown, VL entry is that of the H-CDR2 derivative 7.9H7) VH: not shown VL: DIVLTQSPATLSLSPGERATLSCRASQSVSSSYLAWYQQKPGQAPRLLIYGASSRATGVPARFSGSGSGTDFTLTISSLEPEDFATYYCLQIYNMPITFGQGTKVEIKR | – | – | – | – | – | – | – | – | – | fold improvement of affinity over the MS-Roche-7 parental Fab (human Aβ (1-40) peptide [11]): > 35 fold; Kd (Aβ (1-42) peptide [12]): 93 nM; Kd (human Aβ (1-40) peptide [13]): 31 nM; OD ratio 18-23/BSA [14]: 13; Peptide-ratio 18-23/2-7 [14]: 0.46; OD ratio 19-24/BSA [15]: 8; Peptide-ratio 19-24/2-7 [15]: 0.29; OD ratio 17-22/BSA [16]: 9; Peptide-ratio 17-22/2-7 [16]: 0.32; OD ratio 2-7/BSA [17]: 28
6 | MS-R IgG1 7.9.H3 (antibody, V domains shown, full-length human IgG1; also called 7.9H3 IgG) VH: QVELVESGGGLVQPGGSLRLSCAASGFTFSSYAMSWVRQAPGKGLEWVSAINYQGNRKYYADSVKGRFTISRDNSKNTLYLQMNSLRAEDTAVYYCARGKGNTHKPYGYVRYFDVWGQGTLVTVSS VL: DIVLTQSPATLSLSPGERATLSCRASQSVSSSYLAWYQQKPGQAPRLLIYGASSRATGVPARFSGSGSGTDFTLTISSLEPEDFATYYCLQIYNMPITFGQGTKVEIK | 8 | 0.62 | 6 | 0.46 | 6 | 0.46 | 13 | 0.1 to 0.4 | 0.1 to 0.5 | –
7 | MS-Roche #8.2.H1 Fab (Fab, V domains shown) VH: QVQLVESGGGLVQPGGSLRLSCAASGFTFSSYAMSWVRQAPGKGLEWVSAISITGRRKYYADSVKGRFTISRDNSKNTLYLQMNSLRAEDTAVYYCARLLSRGYNGYYHKFDVWGQGTLVTVSS VL: not shown | – | – | – | – | – | – | – | – | – | OD ratio 18-23/BSA [14]: 23; Peptide-ratio 18-23/2-7 [14]: 1.05; OD ratio 19-24/BSA [15]: 20; Peptide-ratio 19-24/2-7 [15]: 0.94; OD ratio 17-22/BSA [16]: 7; Peptide-ratio 17-22/2-7 [16]: 0.34; OD ratio 2-7/BSA [17]: 22; Kd (Aβ (1-42) peptide [18]): 2.1 nM; Kd (human Aβ (1-40) peptide [19]): 1.6 nM

Now from value to binder, other results behind:

Row | OD ratio 18-23/BSA [1] | Peptide-ratio 18-23/2-7 [1] | OD ratio 19-24/BSA [2] | Peptide-ratio 19-24/2-7 [2] | OD ratio 17-22/BSA [3] | Peptide-ratio 17-22/2-7 [3] | OD ratio 2-7/BSA [4] | Kd (Aβ (1-42) peptide [5]) [nM] | Kd (human Aβ (1-40) peptide [6]) [nM] | Binder | further results
8 | 8 | 0.62 | 6 | 0.46 | 5 | 0.38 | 13 | 0.11 to 0.38 | 0.12 to 0.42 | MSR 7.9.H2 IgG1 (antibody, V domains shown, full-length human IgG1) VH: QVELVESGGGLVQPGGSLRLSCAASGFTFSSYAMSWVRQAPGKGLEWVSAINADGNRKYYADSVKGRFTISRDNSKNTLYLQMNSLRAEDTAVYYCARGKGNTHKPYGYVRYFDVWGQGTLVTVSS VL: DIVLTQSPATLSLSPGERATLSCRASQSVSSSYLAWYQQKPGQAPRLLIYGASSRATGVPARFSGSGSGTDFTLTISSLEPEDFATYYCLQIYNMPITFGQGTKVEIKR | –
9 | 16 | 0.73 | 15 | 0.68 | 3 | 0.14 | 22 | 0.1 to 0.3 | 0.1 to 0.3 | MSR 3.4.H7 IgG1 (antibody, V domains shown, full-length human IgG1) VH: QVQLVESGGGLVQPGGSLRLSCAASGFTFSSYAMSWVRQAPGKGLEWVSVISETGKNIYYADSVKGRFTISRDNSKNTLYLQMNSLRAEDTAVYYCARLTHYARYYRYFDVWGQGTLVTVSS VL: not shown | –
10 | 15 | 0.83 | 14 | 0.78 | 10 | 0.56 | 18 | 0.12 to 0.92 | 0.16 to 1 | MS-R IgG1 8.2.H2 (antibody, V domains shown, full-length human IgG1) VH: QVELVESGGGLVQPGGSLRLSCAASGFTFSSYAMSWVRQAPGKGLEWVSAISRTGSKTYYADSVKGRFTISRDNSKNTLYLQMNSLRAEDTAVYYCARLLSRGYNGYYHKFDVWGQGTLVTVSS VL: not shown | –
11 | 25 | 1.92 | 25 | 1.92 | 20 | 1.54 | 13 | – | – | MS-R IgG 8.2.H2 × 8.2.L1 (antibody, V domains shown, full-length human IgG) VH: QVELVESGGGLVQPGGSLRLSCAASGFTFSSYAMSWVRQAPGKGLEWVSAISRTGSKTYYADSVKGRFTISRDNSKNTLYLQMNSLRAEDTAVYYCARLLSRGYNGYYHKFDVWGQGTLVTVSS VL: DIVLTQSPATLSLSPGERATLSCRASQRVSGRYLAWYQQKPGQAPRLLIYGASSRATGVPARFSGSGSGTDFTLTISSLEPEDFATYYCQQLSSYPPTFGQGTKVEIKR | –
